Measurements published in article doi:10.1101/2022.06.15.496229 (bioRxiv, 2022).

B1: DHR2 domain of human DOCK10 (DOCK10^DHR2, residues 1695-2151) (domain or fragment)
chain: TPELRRTWLESMAKIHARNGDLSEAAMCYIHIAALIAEYLKRKGYWKVEKICTASLLSEDTHPCDSNSLLTTPSGGSMFSMGWPAFLSITPNIKEEGAMKEDSGMQDTPYNENILVEQLYMCVEFLWKSERYELIADVNKPIIAVFEKQRDFKKLSDLYYDIHRSYLKVAEVVNSEKRLFGRYYRVAFYGQGFFEEEEGKEYIYKEPKLTGLSEISQRLLKLYADKFGADNVKIIQDSNKVNPKDLDPKYAYIQVTYVTPFFEEKEIEDRKTDFEMHHNINRFVFETPFTLSGKKHGGVAEQCKRRTILTTSHLFPYVKKRIQVISQSSTELNPIEVAIDEMSKKVSELNQLCTMEEVDMIRLQLKLQGSVSVKVNAGPMAYARAFLEETNAKKYPDNQVKLLKEIFRQFADACGQALDVNERLIKEDQLEYQEELRSHYKDMLSELSTVMNEQITG

Legend:
crystal structure = biological target: the molecule itself; assay: crystal structure
[1] = biological target: B1; assay: ITC
[2] = biological target: B1; assay: crystal structure

| dH [1] [kcal/mol] | stoichiometry N [2] [DOCK10^DHR2 per CDC42] | Binder | binding result (crystal structure) |
| --- | --- | --- | --- |
|  |  | B1 | binds |
| 2.034 ± 0.0143 | 1 | CDC42 (residues 1-191) (natural protein) not shown |  |
